For assay [1], the target named is GH9 catalytic module of Cel9I from Clostridium thermocellum, N-terminally His-tagged (Clostridium thermocellum).
For assay [2], the target named is T1, GH9 catalytic module of Cel9I from Clostridium thermocellum, untagged (Clostridium thermocellum).
T1 chain: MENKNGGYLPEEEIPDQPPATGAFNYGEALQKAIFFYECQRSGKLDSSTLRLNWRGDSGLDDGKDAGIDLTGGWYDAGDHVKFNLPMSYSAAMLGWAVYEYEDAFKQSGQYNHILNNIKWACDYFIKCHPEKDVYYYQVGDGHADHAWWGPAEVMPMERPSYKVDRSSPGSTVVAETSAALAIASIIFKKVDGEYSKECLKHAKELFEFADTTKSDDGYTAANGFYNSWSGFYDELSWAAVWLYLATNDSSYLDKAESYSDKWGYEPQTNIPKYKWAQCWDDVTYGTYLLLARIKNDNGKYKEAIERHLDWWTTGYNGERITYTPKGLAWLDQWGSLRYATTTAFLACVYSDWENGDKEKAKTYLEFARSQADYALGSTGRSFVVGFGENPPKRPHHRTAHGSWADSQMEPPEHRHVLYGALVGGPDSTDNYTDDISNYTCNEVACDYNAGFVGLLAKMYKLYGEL
The assay can be described thus: ITC; VP-ITC, 298 K; about 300 µM CBM3c injected into 65 µM GH9; 50 mM Tris-HCl pH 7.5, 150 mM NaCl, 0.05% sodium azide; one binding site model; CBM3c concentrations corrected to give a stoichiometry of one; two titrations. The following applies: both partners purified. In general terms: ITC needs no label: the signal is the heat of the interaction.

For assay [3], the target named is T2, CBM3c module of Cel9I with its adjacent N-terminal linker, C-terminally His-tagged (Clostridium thermocellum, UniProt Q02934 54-516).
T2 construct: Cloning is described in Burstein et al., 2009 and Gilad et al., 2003; also called CBM3cL; CBM3c with linker; source: E. coli BL21(DE3)RIL, purified (Ni-IDA); not shown: His tag, C-terminal, kept
T2 sequence: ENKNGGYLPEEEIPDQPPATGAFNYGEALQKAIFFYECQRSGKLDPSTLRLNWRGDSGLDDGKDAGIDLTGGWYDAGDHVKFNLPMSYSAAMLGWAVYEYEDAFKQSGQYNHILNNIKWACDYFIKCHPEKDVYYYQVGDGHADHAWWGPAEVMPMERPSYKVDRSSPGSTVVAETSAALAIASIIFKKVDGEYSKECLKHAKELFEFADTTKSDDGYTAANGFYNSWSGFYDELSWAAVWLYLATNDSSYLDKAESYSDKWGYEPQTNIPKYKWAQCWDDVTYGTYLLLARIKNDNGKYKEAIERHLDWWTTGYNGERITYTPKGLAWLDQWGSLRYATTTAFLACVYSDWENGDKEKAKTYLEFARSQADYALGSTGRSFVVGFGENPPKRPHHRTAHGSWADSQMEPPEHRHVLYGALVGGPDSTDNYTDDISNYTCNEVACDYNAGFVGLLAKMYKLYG
Described as above. Particulars: both partners purified.

B1: CBM3c module of Cel9I without the N-terminal linker, C-terminally His-tagged (domain or fragment)
chain: EVPEDEIFVEAGVNASGNNFIEIKAIVNNKSGWPARVCENLSFRYFINIEEIVNAGKSASDLQVSSSYNQGAKLSDVKHYKDNIYYVEVDLSGTKIYPGGQSAYKKEVQFRISAPEGTVFNPENDYSYQGLSAGTVVKSEYIPVYDAGVLVFGREP
modifications: one bound Ca2+ in the crystal. Limits are the crystallized untagged GH9 entity (466 aa, about 52 kDa as on SDS-PAGE). Paper residues 1-446 are entity 21-466 (offset +20, from Tyr440, Gly444 and end …)
As to B1, the CMCase activity (reducing sugar released in 10 min, 333 K, pH 6.0) of 70 pmol His-tagged GH9 mixed with increasing amounts of CBM3cNL, relative to intact Cel9I set as 100% (% of intact Cel9I activity) in assay [1] is 10. Also, the Kd in assay [2] is 290 to 430 nM.

B2: GH9 catalytic module of Cel9I from Clostridium thermocellum, untagged (domain or fragment)
chain: T1 chain
modifications: one bound Ca2+ in the crystal. Limits are the crystallized untagged GH9 entity (466 aa, about 52 kDa as on SDS-PAGE). Paper residues 1-446 are entity 21-466 (offset +20, from Tyr440, Gly444 and end …)
In turn, B2 displayed a Kd in assay [3] of 1300 to 2000 nM.

By Kd is commonly meant a measure of binding affinity in units of concentration.

The values are drawn from article PMC4579020, “Reassembly and co-crystallization of a family 9 processive endoglucanase from its component parts: structural and functional significance of the intermodular linker” (PeerJ, 2015).
